In the assay the target is receptor on the pea aphid (Acyrthosiphon pisum) gut epithelium. Briefly: cell-based or functional assay.

“control phage PhDC6 displaying control peptide C6” yielded a Detection of PEMV RNA in the aphid hemocoel, 1-10 min (No. of positive/No. of tested) (positive samples of 4 tested) of 0; a Detection of PEMV RNA in the aphid hemocoel, 11-20 min (No. of positive/No. of tested) (positive samples of 4 tested) of 0; a Detection of PEMV RNA in the aphid hemocoel, 21-30 min (No. of positive/No. of tested) (positive samples of 4 tested) of 2; a time of feeding on virus-infected plants until viral RNA is detected in hemolymph of 30 min.

B1: phage PhD3.1 displaying peptide GBP3.1 (peptide, not shown: large carriers)
peptide: ATCSKKYPRSPCMA
B1 showed a Detection of PEMV RNA in the aphid hemocoel, 1-10 min (No. of positive/No. of tested) (positive samples of 6 tested) of 0; a Detection of PEMV RNA in the aphid hemocoel, 11-20 min (No. of positive/No. of tested) (positive samples of 6 tested) of 0; a Detection of PEMV RNA in the aphid hemocoel, 21-30 min (No. of positive/No. of tested) (positive samples of 6 tested) of 0; a Detection of PEMV RNA in the aphid hemocoel, 31-40 min (No. of positive/No. of tested) (positive samples of 6 tested) of 0. The same molecule returned a Detection of PEMV RNA in the aphid hemocoel, 41-50 min (No. of positive/No. of tested) (positive samples of 6 tested) of 0; a Detection of PEMV RNA in the aphid hemocoel, 51-60 min (No. of positive/No. of tested) (positive samples of 6 tested) of 1; a Detection of PEMV RNA in the aphid hemocoel, 61-75 min (No. of positive/No. of tested) (positive samples of 2 tested) of 0; a Detection of PEMV RNA in the aphid hemocoel, 76-90 min (No. of positive/No. of tested) (positive samples of 2 tested) of 0. The molecule also returned a time of feeding on virus-infected plants until viral RNA is detected in hemolymph of 60 min.

The values are drawn from patent US20090055975A1.
